The values below come from IntAct's records for PubMed 19850040.

B1: Post-transcriptional regulator MTA (Human herpesvirus 8), Q2HR75 (parent)
chain: MVQAMIDMDIMKGILEDSVSSSEFDESRDDETDAPTLEDEQLSEPAEPPADERIRGTQSAQGIPPPLGRIPKKSQGRSQLRSEIQFCSPLSRPRSPSPVNRYGKKIKFGTAGQNTRPPPEKRPRRRPRDRLQYGRTTRGGQCRAAPKRATRRPQVNCQRQDDDVRQGVSDAVKKLRLPASMIIDGESPRFDDSIIPRHHGACFNVFIPAPPSHVPEVFTDRDITALIRAGGKDDELINKKISAKKIDHLHRQMLSFVTSRHNQAYWVSCRRETAAAGGLQTLGAFVEEQMTWAQTVVRHGGWFDEKDIDIILDTAIFVCNAFVTRFRLLHLSCVFDKQSELALIKQVAYLVAMGNRLVEACNLLGEVKLNFRGGLLLAFVLTIPGMQSRRSISARGQELFRTLLEYYRPGDVMGLLNVIVMEHHSLCRNSECAAATRAAMGSAKFNKGLFFYPLS

This experiment covers variants of B1. To be noted: with thoc4_human ALYREF.
MVQAMIDMDIMKGILEDSVSSSEFDESRDDETDAPTLEDEQLSEPAEPPADERIRGTQSAQGIPPPLGRIPKKSQGRSQLRSEIQFCSPLSRPRSPSPVNRYGKKIEFGTAGQNTRPPPEKRPRRRPRDRLQYGRTTRGGQCRAAPKRATRRPQVNCQRQDDDVRQGVSDAVKKLRLPASMIIDGESPRFDDSIIPRHHGACFNVFIPAPPSHVPEVFTDRDITALIRAGGKDDELINKKISAKKIDHLHRQMLSFVTSRHNQAYWVSCRRETAAAGGLQTLGAFVEEQMTWAQTVVRHGGWFDEKDIDIILDTAIFVCNAFVTRFRLLHLSCVFDKQSELALIKQVAYLVAMGNRLVEACNLLGEVKLNFRGGLLLAFVLTIPGMQSRRSISARGQELFRTLLEYYRPGDVMGLLNVIVMEHHSLCRNSECAAATRAAMGSAKFNKGLFFYPLS [K107E]: the “effect of a mutation on the interaction” value is reported as “disrupting interaction”.

Consider MVQAMIDMDIMKGILEDSVSSSEFDESRDDETDAPTLEDEQLSEPAEPPADERIRGTQSAQGIPPPLGRIPKKSQGRSQLRSEIQFCSPLSRPRSPSPVNRYGKNIKFGTAGQNTRPPPEKRPRRRPRDRLQYGRTTRGGQCRAAPKRATRRPQVNCQRQDDDVRQGVSDAVKKLRLPASMIIDGESPRFDDSIIPRHHGACFNVFIPAPPSHVPEVFTDRDITALIRAGGKDDELINKKISAKKIDHLHRQMLSFVTSRHNQAYWVSCRRETAAAGGLQTLGAFVEEQMTWAQTVVRHGGWFDEKDIDIILDTAIFVCNAFVTRFRLLHLSCVFDKQSELALIKQVAYLVAMGNRLVEACNLLGEVKLNFRGGLLLAFVLTIPGMQSRRSISARGQELFRTLLEYYRPGDVMGLLNVIVMEHHSLCRNSECAAATRAAMGSAKFNKGLFFYPLS [K105N], for which the “effect of a mutation on the interaction” value is reported as “disrupting interaction”.

Regarding MVQAMIDMDIMKGILEDSVSSSEFDESRDDETDAPTLEDEQLSEPAEPPADERIRGTQSAQGIPPPLGRIPKKSQGRSQLRSEIQFCSPLSRPRSPSPVNRYGNKIKFGTAGQNTRPPPEKRPRRRPRDRLQYGRTTRGGQCRAAPKRATRRPQVNCQRQDDDVRQGVSDAVKKLRLPASMIIDGESPRFDDSIIPRHHGACFNVFIPAPPSHVPEVFTDRDITALIRAGGKDDELINKKISAKKIDHLHRQMLSFVTSRHNQAYWVSCRRETAAAGGLQTLGAFVEEQMTWAQTVVRHGGWFDEKDIDIILDTAIFVCNAFVTRFRLLHLSCVFDKQSELALIKQVAYLVAMGNRLVEACNLLGEVKLNFRGGLLLAFVLTIPGMQSRRSISARGQELFRTLLEYYRPGDVMGLLNVIVMEHHSLCRNSECAAATRAAMGSAKFNKGLFFYPLS [K104N], the “effect of a mutation on the interaction” value was “disrupting interaction”.
